{"source": "paper PMC9727766", "about": "(bioRxiv, 2022)", "binders": {"B1": {"name": "fp.006 monoclonal antibody (IgG) (antibody, V domains shown)", "VH": "EVQLVESGGGVVQPGGSLRLSCAASGFNFNNYALHWVRQAPGKGLEWVAIISYEARNKKYGVSVMGRFSISRDNSKSIMYLEMNSLRVEDTGVYYCARDLFLSDYDRSGYDPTRGGFDHWGQGTLVTVSS", "VL": "EIVMTQSPATLSVSPGERATLSCRASQSVSSSLAWYQHRFGQAPRLLISGASTRATGIPGRFSGSGSGTEFTLTISSLQSEDVAVYYCQQYGDWPLVTFGGGTKVEIK"}}, "key": {"[1]": {"biological_target": "SARS-CoV-2 S protein, C-terminally truncated, Omicron BA.1, on 293T cells (SARS-CoV-2 Omicron BA.1 (B.1.1.529), …, strain)", "assay": "flow cytometry on cells"}, "[2]": {"biological_target": "SARS-CoV-2 S protein, C-terminally truncated, Omicron BA.4/BA.5, on 293T cells (SARS-CoV-2 Omicron BA.4/BA.5, strain)", "assay": "flow cytometry on cells"}}, "data": [{"binder": "B1", "values": [{"measurement": "fold increase of binding with soluble ACE2", "setting": "[1]", "result": 5.3, "unit": "fold"}, {"measurement": "fold increase of binding with soluble ACE2", "setting": "[2]", "result": 8.2, "unit": "fold"}]}]}
